This is an account of results in article PMC8093215 (Nature Communications, 2021).

Like-named read-outs stand apart in the source and are kept apart here. No end group written: not given here. trimethyl = trimethyl-lysine; dimethyl = dimethyl-lysine

The stoichiometry N is a count of units in the complex or per binding partner. The term Kd denotes the free concentration of one partner at which half of the binding sites on the other are occupied at equilibrium, for simple one-to-one binding. A high value points to lower affinity.

Assay [1] concerns the target T1, human DNMT1 BAH1 domain, wild type, His6-MBP construct used for the autoinhibitory linker binding (human, UniProt P26358 728-900).
T1 construct: numbering on isoform 1 of 1616 amino acids; also called hDNMT1_(BAH1), WT; source: E. coli BL21(DE3) RIL, purified (Ni, ion exchange, TEV cleavage, Ni, SEC)
As to the kind of experiment: ITC; hDNMT1 BAH1 domain (WT, W796A or Mut^YW) with the autoinhibitory linker peptide hDNMT1(714-727); 5 °C; single-site binding mode. The following applies: both partners purified.

The target of assay [2] is T2, hDNMT1 BAH1 domain from the His6-MBP vector (human, UniProt P26358 728-900).
T2 construct: numbering on isoform 1 of DNMT1 with 1616 amino acids; also called WT; source: E. coli BL21(DE3) RIL, purified (Ni, ion exchange, TEV cleavage, Ni, SEC); not shown: His6-MBP, N-terminal, cleaved
Description: ITC; hDNMT1 BAH1 (WT, W796A or Mut^YW) with the autoinhibitory linker peptide hDNMT1(714-727); 5 °C; single-site fit. The following applies: both partners purified.

The target in assay [3] is T3, bovine DNMT1 BAH1 domain (residues 725–897, residues 838–858 replaced by GAGSA) (bovine, UniProt Q24K09 725-837; Q24K09 859-897).
T3 construct: bovine DNMT1 BAH1 domain, residues 725-837; linker that replaces residues 838-858 to facilitate crystallization; bovine DNMT1 BAH1 domain, residues 859-897; the last two beta-strands were domain-swapped during crystallization; also called bDNMT1_(BAH1); source: E. coli BL21(DE3) RIL, purified (Ni, ULP1 cleavage, Q XL, Ni, SEC); not shown: His6-SUMO, N-terminal, cleaved
T3 chain: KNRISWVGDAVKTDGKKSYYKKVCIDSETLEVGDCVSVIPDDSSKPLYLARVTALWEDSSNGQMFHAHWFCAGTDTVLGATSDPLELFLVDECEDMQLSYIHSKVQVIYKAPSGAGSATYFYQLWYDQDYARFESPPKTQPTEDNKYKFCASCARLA
As to the kind of experiment: crystal structure; bDNMT1 BAH1 mixed with peptide 1:3; hanging drop, 13% PEG1500, 20 mM DTT, 200 mM L-proline, 4 °C; HEPES pH 7.5 (K20me3) or MES pH 6.5 (K20me2). The settings on record: both partners purified.

Assay [4] concerns the target T4, human DNMT1 BAH1 domain (residues 728-900), E821A (human, UniProt P26358 728-900, E821A).
T4 construct: numbering on isoform 1 of 1616 amino acids; also called hDNMT1_(BAH1), E821A; source: E. coli BL21(DE3) RIL, purified as the wild-type protein; not shown: His6-SUMO, N-terminal, cleaved
Description: ITC; 1 mM H4K20me peptide titrated over 0.1 mM hDNMT1 BAH1 or BAH2 domain; 25 mM Tris-HCl pH 7.5, 100 mM NaCl, 2 mM DTT; 5 °C; single-site binding mode. The following applies: both partners purified.

The target in assay [5] is T5, human DNMT1 BAH1 domain (residues 728-900), D768A (human, UniProt P26358 728-900, D768A).
T5 construct: numbering on isoform 1 of 1616 amino acids; also called hDNMT1_(BAH1), D768A; source: E. coli BL21(DE3) RIL, purified as the wild-type protein; not shown: His6-SUMO, N-terminal, cleaved
The assay is described as above. The settings on record: both partners purified.

In assay [6] the target is T6, human DNMT1 BAH1 domain (residues 728-900), E819A (human, UniProt P26358 728-900, E819A).
T6 construct: numbering on isoform 1 of 1616 amino acids; also called hDNMT1_(BAH1), E819A; source: E. coli BL21(DE3) RIL, purified as the wild-type protein; not shown: His6-SUMO, N-terminal, cleaved
The description is as above. The following applies: both partners purified.

Assay [7] concerns the target T7, MBP-tagged human DNMT1 residues 351-1600, M718A/H719A/K723A/K724A/K725A/Q726A (Mut^linker) (human, UniProt P26358 351-1600, M718A | H719A | K723A | K724A | K725A | Q726A).
T7 construct: numbering on isoform 1 of 1616 amino acids; also called MBP-Mut^linker; source: E. coli BL21(DE3) RIL, purified
As to the kind of experiment: ITC. A general note: Isothermal titration calorimetry measures the heat released or taken up as one component is titrated into another.

For assay [8], the target named is T7, MBP-tagged human DNMT1 residues …. As to the kind of experiment: ITC. This is another data set of the same source.
In assay [9] the target is T8, human ORC1 BAH domain (residues 1-185) (human, UniProt Q13415 1-185).
T8 construct: human origin recognition complex subunit 1 (ORC1), BAH domain, residues 1-185
T8 sequence (looked up): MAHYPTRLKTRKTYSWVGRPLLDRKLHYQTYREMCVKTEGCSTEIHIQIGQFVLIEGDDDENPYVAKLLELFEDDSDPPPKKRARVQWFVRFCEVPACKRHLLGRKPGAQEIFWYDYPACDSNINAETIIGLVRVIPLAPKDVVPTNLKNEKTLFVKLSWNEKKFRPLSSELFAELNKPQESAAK
Description: ITC; 0.45 mM H4K20me2 peptide titrated over 64 µM ORC1 BAH domain; 20 mM Tris-HCl pH 7.5, 100 mM NaCl, 1 mM DTT; 5 °C; single-site binding mode. The following applies: both partners purified.

T4 sequence (P26358 728-900 E821A): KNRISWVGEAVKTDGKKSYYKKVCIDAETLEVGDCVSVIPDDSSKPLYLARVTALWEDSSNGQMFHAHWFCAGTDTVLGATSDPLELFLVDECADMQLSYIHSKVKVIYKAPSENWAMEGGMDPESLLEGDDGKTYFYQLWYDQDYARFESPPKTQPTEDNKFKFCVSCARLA
T6 sequence (P26358 728-900 E819A): as the sequence (P26358 728-900 E821A) above, with E92A, A94E counted along it
T7 sequence (P26358 351-1600 M718A/H719A/K723A/K724A/K725A/Q726A): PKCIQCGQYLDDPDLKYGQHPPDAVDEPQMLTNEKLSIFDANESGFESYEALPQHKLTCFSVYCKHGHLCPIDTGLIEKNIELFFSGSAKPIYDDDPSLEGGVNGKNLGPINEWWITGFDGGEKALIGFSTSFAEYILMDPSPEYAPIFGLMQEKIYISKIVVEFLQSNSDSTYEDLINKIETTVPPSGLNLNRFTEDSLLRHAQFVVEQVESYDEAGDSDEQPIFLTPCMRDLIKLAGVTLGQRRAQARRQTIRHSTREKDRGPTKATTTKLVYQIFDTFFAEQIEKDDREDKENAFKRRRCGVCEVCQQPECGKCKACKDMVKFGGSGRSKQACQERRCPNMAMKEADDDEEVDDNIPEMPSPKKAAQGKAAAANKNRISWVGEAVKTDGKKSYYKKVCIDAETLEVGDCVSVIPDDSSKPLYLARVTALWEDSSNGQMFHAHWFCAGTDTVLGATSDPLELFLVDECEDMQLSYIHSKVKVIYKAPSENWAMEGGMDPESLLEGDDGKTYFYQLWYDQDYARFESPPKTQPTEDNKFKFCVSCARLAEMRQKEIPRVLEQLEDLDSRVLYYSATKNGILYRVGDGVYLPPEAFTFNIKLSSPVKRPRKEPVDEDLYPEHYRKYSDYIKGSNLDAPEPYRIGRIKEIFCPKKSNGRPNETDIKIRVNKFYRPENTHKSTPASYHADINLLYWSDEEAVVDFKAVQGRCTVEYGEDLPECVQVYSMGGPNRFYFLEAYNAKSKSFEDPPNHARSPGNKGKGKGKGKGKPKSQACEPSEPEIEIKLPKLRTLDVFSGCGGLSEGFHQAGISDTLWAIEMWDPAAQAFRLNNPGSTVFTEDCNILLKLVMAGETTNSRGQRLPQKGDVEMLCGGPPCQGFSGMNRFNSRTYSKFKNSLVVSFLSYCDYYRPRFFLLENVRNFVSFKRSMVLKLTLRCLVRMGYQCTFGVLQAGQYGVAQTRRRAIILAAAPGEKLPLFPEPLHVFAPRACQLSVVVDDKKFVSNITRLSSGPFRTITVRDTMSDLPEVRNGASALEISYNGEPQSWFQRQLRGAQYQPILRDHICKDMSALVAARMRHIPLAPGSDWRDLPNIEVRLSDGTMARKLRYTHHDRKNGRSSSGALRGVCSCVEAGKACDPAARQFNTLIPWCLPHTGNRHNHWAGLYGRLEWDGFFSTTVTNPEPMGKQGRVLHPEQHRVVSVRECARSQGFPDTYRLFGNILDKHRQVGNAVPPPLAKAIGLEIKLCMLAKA
T5 sequence (P26358 728-900 D768A): as the sequence (P26358 728-900 E821A) above, with D41A, A94E counted along it
T1 sequence (P26358 728-900): as the sequence (P26358 728-900 E821A) above, with A94E counted along it
T2 sequence (P26358 728-900): as the sequence (P26358 728-900 E821A) above, with A94E counted along it

B1: hDNMT1(714-727) autoinhibitory linker peptide (peptide)
peptide: SPKKMHQGKKKKQNY
notes: numbering on isoform 1 of 1616 amino acids; additional C-terminal tyrosine for spectroscopic quantification; source: synthetic peptide (LifeTein)
As for B1, in [1], the “stoichiometry N” value worked out at 1.

B2: autoinhibitory linker peptide hDNMT1(714–727) (peptide)
peptide: SPKKMHQGKKKKQNY
notes: numbering on isoform 1 of DNMT1 with 1616 amino acids; additional C-terminal tyrosine for spectroscopic quantification; source: synthetic peptide (LifeTein)
In assay [2], B2 returned a Kd of around 70 µM.

B3: H4(14–25)K20me3 peptide (peptide)
peptide: GAKRHRK(trimethyl)VLRDNY
notes: histone H4, residues 14-25; additional C-terminal tyrosine for spectroscopic quantification; also called H4K20me3 peptide; source: synthetic peptide (LifeTein)
On to B3, for which the binding result in assay [3] is “binds”.

B4: H4(14–25)K20me2 peptide (peptide)
peptide: GAKRHRK(dimethyl)VLRDNY
notes: histone H4, residues 14-25; additional C-terminal tyrosine for spectroscopic quantification; also called H4K20me2 peptide; source: synthetic peptide (LifeTein)
For B4, the binding result in assay [3] is listed as “binds”.

B5: H4(14-25)K20me3 peptide (peptide)
peptide: GAKRHRKVLRDNY
modifications: trimethyl-lysine at K20
notes: as for B3
Consider B5, for which the Kd in assay [4] stood at 91.7 µM; in assay [5], 11.5 µM; in [6], 9.4 µM; in assay [7], 131 µM; in assay [8] it was 122 µM. In addition, the “stoichiometry N” value in assay [4] was determined as 0.88; in assay [5], 0.82; in assay [6], 0.73; in assay [8], 1.45.

B6: H4(14-25)K20me2 peptide (peptide)
peptide: GAKRHRK(dimethyl)VLRDNY
notes: histone H4, residues 14-25; additional C-terminal tyrosine for spectroscopic quantification; source: synthetic peptide (LifeTein)
As to B6, the Kd in [4] stood at 35.4 µM; in [5], 9.3 µM; in [6], 12.3 µM; in [9] it was 8.7 µM. Also, the “stoichiometry N” value in assay [4] came out at 0.83; in assay [5] it was 0.92; in [6], 0.87; in assay [9] it was 0.75.
